IntAct's records for PubMed 18029035

B1: Coiled-coil domain-containing protein 50 (Homo sapiens), Q8IVM0 (parent)
chain: MAEVSIDQSKLPGVKEVCRDFAVLEDHTLAHSLQEQEIEHHLASNVQRNRLVQHDLQVAKQLQEEDLKAQAQLQKRYKDLEQQDCEIAQEIQEKLAIEAERRRIQEKKDEDIARLLQEKELQEEKKRKKHFPEFPATRAYADSYYYEDGGMKPRVMKEAVSTPSRMAHRDQEWYDAEIARKLQEEELLATQVDMRAAQVAQDEEIARLLMAEEKKAYKKAKEREKSSLDKRKQDPEWKPKTAKAANSKSKESDEPHHSKNERPARPPPPIMTDGEDADYTHFTNQQSSTRHFSKSESSHKGFHYKH

Variants of: B1
Conditions: with ubb_human UBB

effect of a mutation on the interaction | Variant
decreasing interaction | MAEVSIDQSKLPGVKEVCRDFAVLEDHTLAHSLQEQEIEHHLASNVQRNRLVQHDLQVAKQLQEEDLKAQAQLQKRYKDLEQQDCEIAQEIQEKLAIEAERRRIQEKKDEDIARLPQEKELQEEKKRKKHFPEFPATRAYADSYYYEDGGMKPRVMKEAVSTPSRMAHRDQEWYDAEIARKLQEEELLATQVDMRAAQVAQDEEIARLLMAEEKKAYKKAKEREKSSLDKRKQDPEWKPKTAKAANSKSKESDEPHHSKNERPARPPPPIMTDGEDADYTHFTNQQSSTRHFSKSESSHKGFHYKH [L116P]
